The values below come from paper PMC7145517.

The target of test [1] is Myceliophteria thermophila RbBP5 β-propeller domain (residues 1-347). Put plainly: ITC. Particulars: parent: 0.25.
Test [2] addresses Myceliophteria thermophila RbBP5 β-propeller domain (residues 1-347) (Myceliophteria thermophila). Put plainly: ITC; VP-ITC; CtCfp1 RID (350 μM) injected into MtRbBP5 β-propeller (35 μM); 20°C; 50 mM Tris pH 8.0, 200 mM NaCl, 2.5 mM β-mercaptoethanol.

With “Chaetomium thermophilum Cfp1 RID domain (residues 322-508) Y380A”, in test [1], the Kd amounted to 4.06 µM. In test [2], “Chaetomium thermophilum Cfp1 RID domain, Tyr380 substituted by an alanine (domain or fragment)” showed a fold loss in binding against wild-type Cfp1 of 20 fold.

As usually defined, the Kd is the constant that tells how readily two partners part at equilibrium.
